Data from article PMC3149064, “Differential Calcium Signaling by Cone Specific Guanylate Cyclase-Activating Proteins from the Zebrafish Retina” (PLoS ONE, 2011).
Each block holds one molecule with its values, some of them ahead of it.

Columns and labels:
[1] = biological target: zebrafish guanylate cyclase-activating protein 1 (zebrafish (Danio rerio)); test: SEC; analytical size exclusion chromatography (HPLC) on a BioSep-SEC S2000 column with molecular mass standards, 20 µg purified protein, run in the presence of 0.5 mM EGTA (Ca2+-free); dimer to monomers
[2] = biological target: the molecule itself; test: as above

percent dimers [1]: 18%
stoichiometry N [1]: 2
Molecule: zebrafish guanylate cyclase-activating protein 1 (natural protein)

B1: zebrafish guanylate cyclase-activating protein 7 (natural protein, zebrafish (Danio rerio), UniProt Q5MAC7 1-187, looked up)
chain: MGQNQSDEEEEEVELTEIQPLYTRFMKVCPSGALHLHEFRRIFGVQSSSEEEALYMETIFKSFDTNRDNVIDFMEFVAAVHLVLRGNLEDRLKWSFKVYDRDENGKLDRQEVIHVIRILCKLKKNRINMTPVEICDRIFELLDENNDGQISLSEFLEGAEKDAWIMDLLKLDTNARVWFRDNLGKKT
notes: Non-myristoylated; also called zGCAP7; source: anion exchange, ammonium sulfate precipitation, SEC
stoichiometry N [2]: 2
